# According to US20130130985A1:
# Columns and labels:
# [1] = target: human vasopressin V1b receptor (human) (UniProt P47901); assay: radioligand displacement (3H-AVP), WGA SPA beads, COS-1 membranes
# [2] = target: human vasopressin V2 receptor (human) (UniProt P30518); assay: radioligand displacement (3H-AVP), filtration, HEK293 membranes
# [3] = target: human oxytocin receptor (human) (UniProt P30559); assay: cell-based or functional assay
# [4] = target: human vasopressin V1a receptor (human) (UniProt P37288); assay: cell-based or functional assay
# human vasopressin V1a receptor (human), sequence (P37288 whole entry): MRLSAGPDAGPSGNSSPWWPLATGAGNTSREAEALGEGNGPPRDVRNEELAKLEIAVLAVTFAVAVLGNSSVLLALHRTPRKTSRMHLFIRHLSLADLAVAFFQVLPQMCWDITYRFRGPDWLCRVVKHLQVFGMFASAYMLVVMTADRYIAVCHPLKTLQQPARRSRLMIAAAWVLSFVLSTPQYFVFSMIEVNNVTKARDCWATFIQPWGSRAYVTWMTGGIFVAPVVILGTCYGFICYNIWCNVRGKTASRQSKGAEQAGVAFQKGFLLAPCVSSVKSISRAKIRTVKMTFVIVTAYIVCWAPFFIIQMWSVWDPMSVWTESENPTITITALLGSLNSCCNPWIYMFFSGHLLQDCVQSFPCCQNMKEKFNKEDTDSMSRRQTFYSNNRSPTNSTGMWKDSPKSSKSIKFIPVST
# [5] = target: human vasopressin V1b receptor (human) (UniProt P47901); assay: cell-based or functional assay
# [6] = target: human oxytocin receptor (human) (UniProt P30559); assay: radioligand displacement (3H-OT), SPA beads, COS-1 membranes
# [7] = target: human vasopressin V1a receptor (human) (UniProt P37288); assay: radioligand displacement (125I-V1a linear antagonist), SPA beads, COS-1 membranes
# human vasopressin V1b receptor (human), sequence (P47901 whole entry): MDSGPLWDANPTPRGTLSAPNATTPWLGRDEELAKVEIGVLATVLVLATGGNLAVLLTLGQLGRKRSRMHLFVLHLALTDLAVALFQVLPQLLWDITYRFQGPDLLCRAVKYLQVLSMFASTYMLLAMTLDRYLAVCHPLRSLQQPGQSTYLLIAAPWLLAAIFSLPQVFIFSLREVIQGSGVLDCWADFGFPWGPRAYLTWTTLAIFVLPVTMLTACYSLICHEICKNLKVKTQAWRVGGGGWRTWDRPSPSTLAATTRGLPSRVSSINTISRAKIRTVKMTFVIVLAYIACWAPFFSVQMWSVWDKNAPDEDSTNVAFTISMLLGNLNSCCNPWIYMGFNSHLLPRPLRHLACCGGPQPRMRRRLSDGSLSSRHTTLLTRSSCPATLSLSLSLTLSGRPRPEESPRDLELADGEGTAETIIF
# human oxytocin receptor (human), sequence (P30559 whole entry): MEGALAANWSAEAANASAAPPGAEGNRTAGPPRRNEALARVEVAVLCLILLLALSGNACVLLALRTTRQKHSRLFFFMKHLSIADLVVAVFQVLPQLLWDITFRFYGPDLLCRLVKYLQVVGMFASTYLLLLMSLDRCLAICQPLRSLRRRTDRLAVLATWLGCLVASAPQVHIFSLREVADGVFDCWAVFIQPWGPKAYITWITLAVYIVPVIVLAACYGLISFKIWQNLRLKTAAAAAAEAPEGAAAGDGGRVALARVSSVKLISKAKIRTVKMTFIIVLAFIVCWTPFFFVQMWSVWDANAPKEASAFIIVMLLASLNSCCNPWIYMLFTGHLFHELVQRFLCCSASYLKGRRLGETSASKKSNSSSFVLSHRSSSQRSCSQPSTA
Substance,IC50 [1],IC50 [2],"EC50, FLIPR calcium assay [3]","EC50, IP-One HTRF assay [3]","Emax, FLIPR calcium assay [3]","Emax, IP-One HTRF assay [3]","EC50, FLIPR calcium assay [4]","EC50, IP-One HTRF assay [4]","Emax, FLIPR calcium assay [4]","Emax, IP-One HTRF assay [4]","EC50, FLIPR calcium assay [5]","EC50, IP-One HTRF assay [5]","Emax, FLIPR calcium assay [5]","Emax, IP-One HTRF assay [5]",IC50 [6],IC50 [7]
"[C1,6U]-OT (peptide)",1760 nM,3350 nM,1.39 nM,18 nM,86%,94%,35.9 nM,269 nM,100%,70%,7.75 nM,510 nM,82%,103%,538 nM,127 nM
"[C1,6U]-OT-OH (peptide)",–,–,–,–,–,–,–,–,–,–,2460 nM,> 100000 nM,63%,–,–,–
[Te-Te]-Oxytocin (peptide),–,–,11.3 nM,13.3 nM,86%,98%,4280 nM,> 10000 nM,–,–,–,–,–,–,8 nM,–

# Continued, values first:
IC50 [1],IC50 [2],"EC50, FLIPR calcium assay [3]","EC50, IP-One HTRF assay [3]","Emax, FLIPR calcium assay [3]","Emax, IP-One HTRF assay [3]","EC50, FLIPR calcium assay [4]","EC50, IP-One HTRF assay [4]","Emax, FLIPR calcium assay [4]","Emax, IP-One HTRF assay [4]","EC50, FLIPR calcium assay [5]","EC50, IP-One HTRF assay [5]","Emax, FLIPR calcium assay [5]","Emax, IP-One HTRF assay [5]",IC50 [6],IC50 [7],Substance
–,–,–,–,–,64%,–,–,–,75%,–,–,–,–,–,–,[CH2-S]-OT (peptide)
–,–,0.39 nM,0.71 nM,89%,100%,46.1 nM,–,54%,–,–,–,–,–,1.7 nM,–,dOT (peptide)
